Measurements published in patent US20200407445A1 (ITEOS THERAPEUTICS, published 2020).

Tests used:
[1] = target: T1, human TIGIT expressed on cells (human, UniProt Q495A1 22-244); assay: cell-based or functional assay
T1 sequence (looked up): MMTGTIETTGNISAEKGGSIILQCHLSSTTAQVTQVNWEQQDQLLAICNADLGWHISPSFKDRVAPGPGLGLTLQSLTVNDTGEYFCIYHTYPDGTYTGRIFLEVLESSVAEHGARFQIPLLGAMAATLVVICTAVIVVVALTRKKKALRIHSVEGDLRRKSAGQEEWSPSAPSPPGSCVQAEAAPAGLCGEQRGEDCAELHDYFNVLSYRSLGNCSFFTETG

[2] = target: T1, human TIGIT expressed on cells; assay: cell-based or functional assay; remark: listed apart in the source
[3] = target: T1, human TIGIT expressed on cells; assay: flow cytometry on Jurkat-hTIGIT
Method: (§1) Antibodies were incubated with the cells for 20 min at 4° C. in FACS buffer. […] Fluorescence intensity was analysed using LSR BD Fortessa and cell binding was recorded as the median fluorescence intensity of PE in cells expressing TIGIT at their surface.
(§2) The half-maximal concentration of binding (EC50) to Jurkat-hTIGIT was calculated using a four-variable curve-fit equation in Prism.

[4] = target: T1, human TIGIT expressed on cells; assay: flow cytometry on Jurkat-hTIGIT; remark: listed apart in the source
Method: as §1, §2

[5] = target: T1, human TIGIT expressed on cells; assay: flow cytometry, primary CD8+ T cells of healthy human PBMC, MFI
Method: Isolated human PBMCs from healthy volunteers were analysed for binding by antagonist anti-TIGIT antibodies. Cells were distributed at 1×10⁵ cells per well. Cells were incubated with anti-CD16 (Clone 3G8, BioLegend 302002), CD32 (Clone FLI8.26, BD Bioscience 557333) and CD64 (BD Bioscience 555525) at room temperature for 10 min, and the indicated anti-human TIGIT antibody clones were directly added at a final concentration of 8; 4; 2; 1; 0.5; 0.25; 0.125; 0.062; 0.031; 0.016; 8×10⁻³ and 4×10⁻³ nM in FACS buffer and incubated for 20 min at 4° C. […] Then, cells were washed and incubated with the following antibodies and LVD mix: anti-CD4-PercP-Cy5.5 (clone A161A1, BioLegend 357414); anti-CD8-BV510 (clone SK1, BD Bioscience 563919) and LVD efluor 660 (eBioscience 65-0864-18).
The EC50 values for binding to CD8+ human primary T cells were calculated using the MFI signal on living TIGIT+CD8+ T cells.

[6] = target: T1, human TIGIT expressed on cells; assay: flow cytometry, primary CD8+ T cells of cancer patients' PBMC, MFI
Method: Cells were distributed at 1×10^5 cells per well. […] Then, cells were washed and incubated with the following antibodies and life viability dye (LVD) mix: anti-CD4-PercP-Cy5.5 (clone A161A1, BioLegend 357414); anti-CD8-BV510 (clone SK1, BD Bioscience 563919) and LVD efluor 520 (eBioscience 65-0867-14). Cells were washed and fixed and surface staining was quantified using BD LSR Fortessa. Flow cytometry data was analysed using FlowJo V10.1. TIGIT MFI on gated LVD-TIGIT+CD8+ cells was used to calculate EC50 values.

[7] = target: T1, human TIGIT expressed on cells; assay: flow cytometry, competition with CD155-His (15 ug/ml) on Jurkat-hTIGIT
[8] = target: T2, recombinant human TIGIT protein (construct not stated) (human, UniProt Q495A1 22-141, limits assumed); assay: Biacore T200, IgG captured by anti-human Fc, antigen in solution, 1:1 kinetic model
T2 construct: also called hTIGIT (Creative Biomart); recombinant TIGIT protein
T2 sequence (looked up): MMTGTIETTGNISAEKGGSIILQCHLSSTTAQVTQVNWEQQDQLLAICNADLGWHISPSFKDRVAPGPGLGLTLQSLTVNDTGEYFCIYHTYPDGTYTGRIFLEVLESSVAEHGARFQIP
Method: (§3) Biosensor analysis was conducted at 25° C. in a HBS-EP buffer system (10 mM HEPES pH 7.3, 150 mM NaCl, 3 mM EDTA, 0.05% Tween20) using Biacore T200 technology, CMS sensor chip (run at Novalix, France). The sample hotel was maintained at 8° C. Goat anti-human IgG capture antibody (Fcγ fragment specific, Jackson ImmunoResearch Laboratories) was immobilized (10000 RU) to both flow cells of the sensor chip using standard amine coupling chemistry. This surface type provided a format for reproducibly capturing fresh analysis antibody after each regeneration step. Flow cell 2 was used to analyse captured antibody while flow cell 1 was used as a reference flow cell. […] Two blank (buffer) injections also were run and used to assess and subtract system artefacts. The association (300 s) and dissociation (600 s) phases for all antigen concentrations were performed at a flow rate of 30 uL/min. The surface was regenerated with three sequential injections (15 s, 15 s and 60 s) of 10 mM glycine-HCl, pH 1.5. The obtained sensorgrams were fitted globally to a 1:1 model (assuming the same kinetic values for all applied concentrations).

[9] = target: T1, human TIGIT expressed on cells; assay: flow cytometry, cell binding Jurkat human TIGIT
[10] = target: T1, human TIGIT expressed on cells; assay: flow cytometry, AF647-32959 on Jurkat-hTIGIT; competitor 31282 at 0 nM
Method: (§4) Geometric mean fluorescence intensity was analysed using LSR BD Fortessa. Cell binding was recorded as the median florescence intensity of AF647.

[11] = target: T1, human TIGIT expressed on cells; assay: flow cytometry, AF647-32959 on Jurkat-hTIGIT; competitor 31282 at 8 nM
Method: as §4

[12] = target: T1, human TIGIT expressed on cells; assay: flow cytometry, AF647-32959 on Jurkat-hTIGIT; competitor 31282 at 0.8 nM
Method: as §4

[13] = target: T1, human TIGIT expressed on cells; assay: flow cytometry, AF647-32959 on Jurkat-hTIGIT; competitor 31282 at 0.08 nM
Method: as §4

[14] = target: T1, human TIGIT expressed on cells; assay: flow cytometry, AF647-32959 on Jurkat-hTIGIT; competitor 31282 at 0.16 nM
Method: as §4

[15] = target: T3, mouse TIGIT expressed on cells (mouse, UniProt P86176 29-249); assay: cell-based or functional assay
T3 sequence (looked up): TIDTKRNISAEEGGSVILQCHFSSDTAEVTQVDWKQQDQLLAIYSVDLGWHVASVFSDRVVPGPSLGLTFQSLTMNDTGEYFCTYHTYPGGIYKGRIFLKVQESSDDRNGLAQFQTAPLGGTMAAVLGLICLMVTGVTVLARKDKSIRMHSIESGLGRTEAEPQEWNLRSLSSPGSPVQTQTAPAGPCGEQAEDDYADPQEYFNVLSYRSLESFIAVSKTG

[16] = target: T1, human TIGIT expressed on cells; assay: cell-based or functional assay; remark: listed apart in the source
Human TIGIT-Fc = target: T4, Human TIGIT-Fc (human, UniProt Q495A1 22-141); assay: ForteBio BLI, IgG KD, avid
T4 construct: bought (Creative Biomart); also called TIGIT-Fc antigen; TIGIT-Fc fusion antigen; not shown: Fc part
T4 sequence (looked up): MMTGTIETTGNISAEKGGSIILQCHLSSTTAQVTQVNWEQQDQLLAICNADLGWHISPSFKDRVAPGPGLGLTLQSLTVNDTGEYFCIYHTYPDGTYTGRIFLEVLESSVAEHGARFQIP

[17] = target: T1, human TIGIT expressed on cells; assay: flow cytometry, 100 nM Ab, Jurkat-hTIGIT vs untransfected
Method: (§5) Antibodies were incubated with the cells for 20 min at 4° C. in FACS buffer. […] Geometric mean fluorecence intensity was analysed using LSR BD Fortessa. Cell binding was recorded as the median florescence intensity of PE on the transfected line compared to the un-transfected line for each antibody (Table 3).

[18] = target: T3, mouse TIGIT expressed on cells; assay: flow cytometry, 100 nM Ab, Jurkat-mTIGIT vs untransfected
Method: as §5

[19] = target: T3, mouse TIGIT expressed on cells; assay: flow cytometry, competition with mouse CD155-His-Fc (4 ug/ml) on Jurkat-mTIGIT, FIG. 15A
Method: Cells were washed once, and stained with PE-anti-His antibody (Biolegend, 362603) during 30 min at 4° C.

[20] = target: T2, recombinant human TIGIT protein …; assay: Biacore T200, IgG captured by anti-human Fc, antigen in solution, steady state model
Method: as §3, with “The obtained sensorgrams were fitted globally to a 1:1 model (assuming the same kinetic values for all applied concentrations).” left out

B1: 4.1D3.Q1E (comparative anti-TIGIT antibody, human IgG1) (antibody, V domains shown)
VH: EVQLQQSGPGLVKPSQTLSLTCAISGDSVSSNSAAWNWIRQSPSRGLEWLGKTYYRFKWYSDYAVSVKGRITINPDTSKNQFSLQLNSVTPEDTAVFYCTRESTTYDLLAGPFDYWGQGTLVTVSS
VL: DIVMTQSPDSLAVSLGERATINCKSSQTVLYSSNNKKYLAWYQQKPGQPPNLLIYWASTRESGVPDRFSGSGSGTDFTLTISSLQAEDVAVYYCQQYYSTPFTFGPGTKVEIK
notes: from WO2017/053748; made in HEK cells as human IgG1
**Q.** What does the source list for B1?
**A.** EC50 (nM), luciferase, Jurkat-hTIGIT [1]: 10.3 nM; Fold change of EC50 over EC50 of best clone (31282_up) [1]: 3.1 fold; Induction over Isotype control (fold change), luciferase, Jurkat-hTIGIT + CD155 aAPC/CHO-K1 [1]: 5.8 fold; EC50 (nM), IFNg, human primary CD8+ T cells [2]: 1.43 nM; Fold change of EC50 over EC50 of best clone (31282_wu) [2]: 10.8 fold; Induction over isotype control (fold change), IFNg, human primary CD8+ T cells + CD155 aAPC/CHO-K1 [2]: 2.9 fold; EC50 [3]: 0.267 nM; EC50 [4]: 0.27 nM; Fold change of EC50 over EC50 of best clone (31282_wu) [4]: 2.5 fold; EC50 [5]: 1.88 nM; Fold change of EC50 over EC50 of best clone (31282_wu) [5]: 9.7 fold; EC50 [6]: 1.15 nM; Fold change of EC50 over EC50 of best clone (31282) [6]: 9.5 fold; Fold change of IC50 over IC50 of best clone (31282_up) [7]: 1.9 fold; IC50 [7]: 0.07 nM; Kd [8]: 0.044 nM; koff [8]: 4.72e-05 s⁻¹

B2: anti-TIGIT antibody clone 32959 (human IgG1) (antibody, V domains shown)
VH: QVQLVQSGAEVKKPGSSVKVSCKASGGTFSSYLISWVRQAPGQGLEWMGGIYPIFATANYAQKFQGRVTITADESTSTAYMELSSLRSEDTAVYYCAREAQSYRVPFDIWGQGTMVTVSS
VL: EIVMTQSPATLSVSPGERATLSCRASQSVSSNLAWYQQKPGQAPRLLIYGASTRATGIPARFSGSGSGTEFTLTISSLQSEDFAVYYCQQYAIWPPFTFGGGTKVEIK
modifications: The antibody was directly coupled to the dye AF647 in Example 24; the attachment sites are not stated.
notes: human IgG1 made in HEK cells
**Q.** B2 was tested. Which “FON (Fold Over Negative)” value [9] did it give?
**A.** 588 fold

**Q.** What about the EC50 [10] of the same binder?
**A.** 0.22 nM

**Q.** What about the EC50 [11] of the same binder?
**A.** 0.39 nM

**Q.** What about the EC50 [12] of the same binder?
**A.** 0.49 nM

**Q.** What about the EC50 [13] of the same binder?
**A.** 0.33 nM

**Q.** And the EC50 [14]?
**A.** 0.37 nM

B3: anti-TIGIT antibody clone 26493 (IgG) (antibody, V domains shown)
VH: EVQLVESGGGLVQPGRSLRLSCAASGFTFGDYAMHWVRQAPGKGLEWVSGITWNSGSIGYADSVKGRFTISRDNAKNSLYLQMNSLRAEDTALYYCAKPVPKSRGLDVWGQGTMVTVSS
VL: DIQLTQSPSSVSASVGDRVTITCRASQGISSWLAWYQQKPGKAPKLLIYGASSLQSGVPSRFSGSGSGTDFTLTISSLQPEDFATYYCQQAFYLPWTFGGGTKVEIK
notes: parent clone; also called surrogate anti-TIGIT antagonistic antibody
**Q.** Which “IFNg production by mouse OT-I CD8+ T cells co-cultured with OVA-pulsed PanO2 cells (express CD155), 133 nM” value [15] does the source give for B3 here?
**A.** ~2 fold

**Q.** What about the “Induction over Isotype control (fold change), luciferase, Jurkat-hTIGIT + CHO-TCR-CD155, 133 nM” value [16] of the same binder?
**A.** 0.96 fold

**Q.** What about the Kd (Human TIGIT-Fc) of the same binder?
**A.** 1.49 nM

**Q.** What about the “FON (Fold Over Negative)” value [17] of the same binder?
**A.** 80 fold

**Q.** And the “FON (Fold Over Negative)” value [18]?
**A.** 463 fold

**Q.** And the IC50 [19]?
**A.** 2.3 nM

B4: 313M32 (comparative anti-TIGIT antibody, human IgG1) (antibody, V domains shown)
VH: QVQLQESGPGLVKPSETLSLTCAVSGYSITSDYAWNWIRQPPGKGLEWIGYISYSGSTSYNPSLRSRVTISRDTSKNQFFLKLSSVTAADTAVYYCARRQVGLGFAYWGQGTLVTVSS
VL: DIQMTQSPSSLSASVGDRVTITCKASQDVSTAVAWYQQKPGKAPKLLIYSASYRYTGVPSRFSGSGSGTDFTFTISSLQPEDIATYYCQQHYSTPWTFG
notes: from WO2016/191643; made in HEK cells as human IgG1; the VL as printed ends at ...TFG (FR4 not complete); also called 313M2
**Q.** What does the source list for B4?
**A.** EC50 [3]: 0.445 nM; EC50 [4]: 0.44 nM; Fold change of EC50 over EC50 of best clone (31282_wu) [4]: 4.2 fold; EC50 [5]: 1.45 nM; Fold change of EC50 over EC50 of best clone (31282_wu) [5]: 7.5 fold; EC50 [6]: 1 nM; Fold change of EC50 over EC50 of best clone (31282) [6]: 8.3 fold; Fold change of IC50 over IC50 of best clone (31282_up) [7]: 16.7 fold; IC50 [7]: 0.65 nM; Kd [20]: 10.1 nM
